Results reported in IntAct's records for PubMed 22153509.

B1: Interleukin-5 receptor subunit alpha (Homo sapiens), Q01344-2 (parent)
chain: MIIVAHVLLILLGATEILQADLLPDEKISLLPPVNFTIKVTGLAQVLLQWKPNPDQEQRNVNLEYQVKINAPKEDDYETRITESKCVTILHKGFSASVRTILQNDHSLLASSWASAELHAPPGSPGTSIVNLTCTTNTTEDNYSRLRSYQVSLHCTWLVGTDAPEDTQYFLYYRYGSWTEECQEYSKDTLGRNIACWFPRTFILSKGRDWLAVLVNGSSKHSAIRPFDQLFALHAIDQINPPLNVTAEIEGTRLSIQWEKPVSAFPIHCFDYEVKIHNTRNGYLQIEKLMTNAFISIIDDLSKYDVQVRAAVSSMCREAGLWSEWSQPIYVGFSR

Variants of: B1
Conditions: with il5_human IL5, P05113
Chain of il5_human IL5, P05113 (P05113 whole entry): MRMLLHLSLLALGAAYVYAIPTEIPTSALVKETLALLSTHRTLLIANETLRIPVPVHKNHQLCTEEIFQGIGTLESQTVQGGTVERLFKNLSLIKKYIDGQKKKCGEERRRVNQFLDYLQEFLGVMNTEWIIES

Row | Variant | effect of a mutation on the interaction
1 | D228A | disrupting interaction
2 | M315A | decreasing interaction
3 | R208K | decreasing interaction
